{"source": "patent US20240336664A1", "about": "“SULFATED POLYPEPTIDES FOR SYSTEMIC DELIVERY” (priority 2021, published 2024)", "system": "C2C12 mouse myoblasts", "assay": "Luciferase reporter expression from muscle promoters", "format": "cell-based", "settings": "48 hours post transfection, FIG. 6", "text": "The present Example includes the recognition that certain promoters utilized herein have advantageous characteristics for expression of operably linked coding sequences in muscle cells, as exemplified in the present Example in C2C12 mouse myoblasts as a representative muscle cell type. In the present Example, a luciferase reporter construct was expressed in C2C12 mouse myoblasts using each of three promoters. Cells were mock transfected or transfected with vectors expressing luciferase using Lipofectamine LTS Plus reagent in a 96-well plate. 48 hours post transfection luciferase activity was measured using ONE-Glo™ Luciferase Assay System (E6110, Promega).", "data": [{"molecule": "SEQ ID NO: 3: promoter nucleic acid sequence driving a luciferase expression construct in muscle cells (nucleic acid) DNA: CAGGCCCTGTAACTTTTCCAATAAAATATTCTATTAGAAACAAGTTCCTTCTAGATCTTCCTAAAAGAATACTAAAGGACCAAACCGTGCAACAGCACTGGTGGTATTGTCTTAATTTAGAGAGTCCATACCAGTGATTCTCAAACATTAGTATGCTCAGAGTTTCTGGTTCAATAGGTCTGGGCCGGGCCCAGGGAATTTTCATTTCTAAGAAGTTCGCAGGTGATACTGATAACTGCTGTTCCCAGGGTCTACATTTTGAGATCCGCTGCTATGTCACAAATCCAAATCCAAAGTCTTTTTAACAATCCCTTTTAGCCCAGGATGAGCCTAACGGCAATTTCACGTCCTTATCGCCGGCCACTTTAATCTTCAACTGAGGAGGAAGGGAGAGTGAGAATTATGTATATAATTTTTTTCTTTTATTTTTTAAAAAGAAAACTCCAAGCCCACACTCTTAATTATCTGGGATGAGGTCATTTGCACCTGGGTCATTTATTTAGACAACAAGTAGTCTTGCTAGAGGCTTTAAGGAGGTGTTAGCAGAGCGGTGTGTGGCTTCCAGGTTCCTGGGTCTACCTTAAATCCCCATCCTCTTTCTTTCTTTCTTTCTTTCTTTCTTTCTCTTTTCTTTTTCCTTTCCGTTTTGAAAGCCCCAACTGCCCAGTCTCTGGGTGTCCGGGTTCCCAGGTCCCTAGGTGGGGGCGGAGCCCGACACGGCCCCGCCCCGTCTGCCCGCAGCGCCCCCTCCCCGGCCCGCCCGCGCCGGCTCCTCCGCAGTGCTTTCAGCTGTGAGCTTGGGCGGCGGCGGCGGCGGCGCTCCACTTTCGGGGAGCCCGGCGGCTCTGGGAAGCTCACTCCTCCACTCGTACCCACACTCGACCGCGGAGCCCTTGCAGCCATGAGGGAACAGCTCAAAGGGTAAGTGGA", "values": [{"measurement": "luciferase expression vs promoters SEQ ID NO: 4 and SEQ ID NO: 5 and mock", "value": "substantially greater expression"}]}]}
